Entries after “also recorded” stand apart in the source; their conditions may differ.
How the values were obtained:
Vγ9Vδ2 cells = assay: Flow cytometry: CD25 on Vγ9Vδ2 cells without phosphoantigen or APCs; type: cell-based, human; details: no addition of APCs or phosphoantigen; listed as 259
Text: Vγ9Vδ2 cells were stained for CD3, Vδ2, CD25 and live dead viability dye as previously described and analysed on a Canto flow cytometer (BD). Cells were gated on lymphocytes, single cells, live cells, CD3+ Vδ2+, and activation determined based on CD25 expression.

BTN2A2 = target: T1, BTN2A2 (Homo sapiens, UniProt Q8WVV5); assay: Cross-reactivity of anti-BTN2A1 mAb to BTN2A2 (ELISA, transfected cells); type: binding
T1 sequence (Q8WVV5 33-265 limits assumed): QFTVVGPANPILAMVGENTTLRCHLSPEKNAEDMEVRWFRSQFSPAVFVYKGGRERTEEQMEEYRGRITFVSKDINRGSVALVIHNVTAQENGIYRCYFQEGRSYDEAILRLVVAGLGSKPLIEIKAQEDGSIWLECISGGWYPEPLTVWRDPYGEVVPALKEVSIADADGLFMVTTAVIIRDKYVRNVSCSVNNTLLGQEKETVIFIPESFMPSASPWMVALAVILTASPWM
Procedure: Purified recombinant proteins (0.2-20 μg/ml) were immobilized in microplate wells in PBS buffer overnight at 4° C. Non-specific binding was then blocked by incubation in PBS containing 0.05% tween 20 plus 5% skim milk powder or 0.5% (w/v) bovine serum albumin (BSA). The wells were then incubated for 60 minutes at room temperature in the presence of antibodies at 2-5 μg/mL in PBS/0.05% tween-20/2% skim milk powder or 0.5% BSA, followed by washing in PBS/0.05% tween-20. Plates were then incubated with HRP-labelled sheep anti-mouse IgG secondary antibody (Chemicon), or goat anti-mouse IgG secondary antibody (Millipore) followed by detection using 3,3′,5,5′-tetramethylbenzidine substrate (Sigma) and absorbance was measured at 450 nm using a plate reader.

cross-reactivity to BTN2A2 (BTN2A2): not cross-reactive
B1: antibody 259: agonistic anti-BTN2A1 antibody; VL SEQ ID NO: 156, VH SEQ ID NO: 160 (antibody, V domains shown)
VH: EVQLLESGGGLVQPGGSLRLSCAASGFTFSSYAMQWVRQAPGKGLEWVSRIGPSGGGTMYADSVKGRFTISRDNSKNTLYLQMNSLRAEDMAVYYCARDLGGLSVLFDYWGQGTLVTVSS
VL: QSELTQPPSASETPGQRVTISCSGSSSNIGSNTVSWFQQLPGSAPRLLIYNDHRRPSGVPDRFSGSKSGTSASLVISGLQSQDEADYYCSAWDDSLNGVVFGGGTKLTVL
modifications: amino acid sequence of the VH of antibody 259; amino acid sequence of the VL of antibody 259
activation of Vγ9Vδ2 cells by CD25 upregulation (Vγ9Vδ2 cells): higher activation potential; also recorded: can mimic phosphoantigen mediated activation to various degrees

— patent publication US20220273713A1, “METHOD OF INHIBITING OR ACTIVATING GAMMA DELTA T CELLS” (The University of Melbourne, priority 2019, published 2022)
